Our source for the Kd values is publication PMC10786891, “Massively parallel profiling of RNA-targeting CRISPR-Cas13d”.

The labels stand for the following.
T1: EsCas13d, nuclease-dead (Eubacterium siraeum, UniProt B0MS50, R295A;H300A;R849A;H854A)
T1 sequence: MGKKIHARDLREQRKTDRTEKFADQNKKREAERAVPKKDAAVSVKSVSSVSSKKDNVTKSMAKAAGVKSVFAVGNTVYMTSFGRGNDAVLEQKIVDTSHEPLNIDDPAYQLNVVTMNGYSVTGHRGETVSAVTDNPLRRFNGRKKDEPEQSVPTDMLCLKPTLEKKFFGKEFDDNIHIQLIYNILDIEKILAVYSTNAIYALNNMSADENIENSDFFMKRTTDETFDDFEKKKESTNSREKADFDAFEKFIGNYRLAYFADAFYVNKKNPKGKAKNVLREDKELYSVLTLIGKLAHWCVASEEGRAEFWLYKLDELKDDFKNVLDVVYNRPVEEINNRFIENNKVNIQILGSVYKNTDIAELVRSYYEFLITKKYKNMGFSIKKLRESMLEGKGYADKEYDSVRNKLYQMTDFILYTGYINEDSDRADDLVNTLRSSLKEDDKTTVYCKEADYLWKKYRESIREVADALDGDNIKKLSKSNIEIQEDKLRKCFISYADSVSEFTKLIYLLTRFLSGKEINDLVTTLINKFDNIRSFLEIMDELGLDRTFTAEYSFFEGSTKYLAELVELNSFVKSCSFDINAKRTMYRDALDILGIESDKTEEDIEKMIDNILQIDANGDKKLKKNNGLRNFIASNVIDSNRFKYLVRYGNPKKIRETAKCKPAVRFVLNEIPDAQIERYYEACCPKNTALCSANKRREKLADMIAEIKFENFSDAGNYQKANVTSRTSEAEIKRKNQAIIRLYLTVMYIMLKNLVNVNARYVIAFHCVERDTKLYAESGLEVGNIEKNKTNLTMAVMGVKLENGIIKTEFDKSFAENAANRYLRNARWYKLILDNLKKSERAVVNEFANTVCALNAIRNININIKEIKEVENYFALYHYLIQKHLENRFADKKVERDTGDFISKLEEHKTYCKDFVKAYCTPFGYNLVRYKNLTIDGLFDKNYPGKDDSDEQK

B1: target 1 MT 5'PFS GCU 3'PFS UUA (mixed)
RNA 1: CACCCGUGCAAAAAUGCAGGGGUCUAAAACUGAGCGGAUAACCUCUCUAUGG
RNA 2: GGGAAUGGAUCCACAUCUACGAAUUCGCUCCAUAGAGAGGUUAUCCGCUCAUUAAGAUCGGAAGAGCACACGU
B2: target 1 MT 5'PFS GAG 3'PFS AGA (mixed)
RNA 1: CACCCGUGCAAAAAUGCAGGGGUCUAAAACUGAGCGGAUAACCUCUCUAUGG
RNA 2: GGGAAUGGAUCCACAUCUACGAAUUCGAGCCAUAGAGAGGUUAUCCGCUCAAGAAGAUCGGAAGAGCACACGU
B3: target 1 MT 5'PFS GUA 3'PFS GGA (mixed)
RNA 1: CACCCGUGCAAAAAUGCAGGGGUCUAAAACUGAGCGGAUAACCUCUCUAUGG
RNA 2: GGGAAUGGAUCCACAUCUACGAAUUCGUACCAUAGAGAGGUUAUCCGCUCAGGAAGAUCGGAAGAGCACACGU
B4: target 1 MT 5'PFS AUG 3'PFS CCC (mixed)
RNA 1: CACCCGUGCAAAAAUGCAGGGGUCUAAAACUGAGCGGAUAACCUCUCUAUGG
RNA 2: GGGAAUGGAUCCACAUCUACGAAUUCAUGCCAUAGAGAGGUUAUCCGCUCACCCAGAUCGGAAGAGCACACGU
B5: target 1 G5C,A16G (mixed)
RNA 1: CACCCGUGCAAAAAUGCAGGGGUCUAAAACUGAGCGGAUAACCUCUCUAUGG
RNA 2: GGGAAUGGAUCCACAUCUACGAAUUCGUACCAUAGGGAGGUUAUCCCCUCACCGAGAUCGGAAGAGCACACGU
B6: target 1 MT 5'PFS GUA 3'PFS UAG (mixed)
RNA 1: CACCCGUGCAAAAAUGCAGGGGUCUAAAACUGAGCGGAUAACCUCUCUAUGG
RNA 2: GGGAAUGGAUCCACAUCUACGAAUUCGUACCAUAGAGAGGUUAUCCGCUCAUAGAGAUCGGAAGAGCACACGU
B7: target 1 MT 5'PFS GCA 3'PFS UAC (mixed)
RNA 1: CACCCGUGCAAAAAUGCAGGGGUCUAAAACUGAGCGGAUAACCUCUCUAUGG
RNA 2: GGGAAUGGAUCCACAUCUACGAAUUCGCACCAUAGAGAGGUUAUCCGCUCAUACAGAUCGGAAGAGCACACGU
B8: target 1 MT 5'PFS GUA 3'PFS GGC (mixed)
RNA 1: CACCCGUGCAAAAAUGCAGGGGUCUAAAACUGAGCGGAUAACCUCUCUAUGG
RNA 2: GGGAAUGGAUCCACAUCUACGAAUUCGUACCAUAGAGAGGUUAUCCGCUCAGGCAGAUCGGAAGAGCACACGU
B9: target 1 MT 5'PFS GCA 3'PFS UAA (mixed)
RNA 1: CACCCGUGCAAAAAUGCAGGGGUCUAAAACUGAGCGGAUAACCUCUCUAUGG
RNA 2: GGGAAUGGAUCCACAUCUACGAAUUCGCACCAUAGAGAGGUUAUCCGCUCAUAAAGAUCGGAAGAGCACACGU
B10: target 1 MT 5'PFS GUA 3'PFS UAU (mixed)
RNA 1: CACCCGUGCAAAAAUGCAGGGGUCUAAAACUGAGCGGAUAACCUCUCUAUGG
RNA 2: GGGAAUGGAUCCACAUCUACGAAUUCGUACCAUAGAGAGGUUAUCCGCUCAUAUAGAUCGGAAGAGCACACGU
B11: target 1 MT 5'PFS GUA 3'PFS UGU (mixed)
RNA 1: CACCCGUGCAAAAAUGCAGGGGUCUAAAACUGAGCGGAUAACCUCUCUAUGG
RNA 2: GGGAAUGGAUCCACAUCUACGAAUUCGUACCAUAGAGAGGUUAUCCGCUCAUGUAGAUCGGAAGAGCACACGU
B12: target 1 MT 5'PFS GCA 3'PFS UAU (mixed)
RNA 1: CACCCGUGCAAAAAUGCAGGGGUCUAAAACUGAGCGGAUAACCUCUCUAUGG
RNA 2: GGGAAUGGAUCCACAUCUACGAAUUCGCACCAUAGAGAGGUUAUCCGCUCAUAUAGAUCGGAAGAGCACACGU
B13: target 1 MT 5'PFS GCU 3'PFS UUC (mixed)
RNA 1: CACCCGUGCAAAAAUGCAGGGGUCUAAAACUGAGCGGAUAACCUCUCUAUGG
RNA 2: GGGAAUGGAUCCACAUCUACGAAUUCGCUCCAUAGAGAGGUUAUCCGCUCAUUCAGAUCGGAAGAGCACACGU
B14: target 1 MT 5'PFS GUA 3'PFS GGG (mixed)
RNA 1: CACCCGUGCAAAAAUGCAGGGGUCUAAAACUGAGCGGAUAACCUCUCUAUGG
RNA 2: GGGAAUGGAUCCACAUCUACGAAUUCGUACCAUAGAGAGGUUAUCCGCUCAGGGAGAUCGGAAGAGCACACGU
B15: target 1 MT 5'PFS GCU 3'PFS UUG (mixed)
RNA 1: CACCCGUGCAAAAAUGCAGGGGUCUAAAACUGAGCGGAUAACCUCUCUAUGG
RNA 2: GGGAAUGGAUCCACAUCUACGAAUUCGCUCCAUAGAGAGGUUAUCCGCUCAUUGAGAUCGGAAGAGCACACGU
B16: target 1 MT 5'PFS GUA 3'PFS UAA (mixed)
RNA 1: CACCCGUGCAAAAAUGCAGGGGUCUAAAACUGAGCGGAUAACCUCUCUAUGG
RNA 2: GGGAAUGGAUCCACAUCUACGAAUUCGUACCAUAGAGAGGUUAUCCGCUCAUAAAGAUCGGAAGAGCACACGU
B17: target 1 MT 5'PFS GUA 3'PFS GGU (mixed)
RNA 1: CACCCGUGCAAAAAUGCAGGGGUCUAAAACUGAGCGGAUAACCUCUCUAUGG
RNA 2: GGGAAUGGAUCCACAUCUACGAAUUCGUACCAUAGAGAGGUUAUCCGCUCAGGUAGAUCGGAAGAGCACACGU
B18: target 1 MT 5'PFS CUA 3'PFS AAG (mixed)
RNA 1: CACCCGUGCAAAAAUGCAGGGGUCUAAAACUGAGCGGAUAACCUCUCUAUGG
RNA 2: GGGAAUGGAUCCACAUCUACGAAUUCCUACCAUAGAGAGGUUAUCCGCUCAAAGAGAUCGGAAGAGCACACGU
B19: target 1 MT 5'PFS GUA 3'PFS UAC (mixed)
RNA 1: CACCCGUGCAAAAAUGCAGGGGUCUAAAACUGAGCGGAUAACCUCUCUAUGG
RNA 2: GGGAAUGGAUCCACAUCUACGAAUUCGUACCAUAGAGAGGUUAUCCGCUCAUACAGAUCGGAAGAGCACACGU
B20: target 1 insU 3' of 13,insA 3' of 13 (mixed)
RNA 1: CACCCGUGCAAAAAUGCAGGGGUCUAAAACUGAGCGGAUAACCUCUCUAUGG
RNA 2: GGGAAUGGAUCCACAUCUACGAAUUCGUACCAUAGAGAGUAGUUAUCCGCUCACCGAGAUCGGAAGAGCACACGU
B21: target 1 MT 5'PFS GCA 3'PFS UAG (mixed)
RNA 1: CACCCGUGCAAAAAUGCAGGGGUCUAAAACUGAGCGGAUAACCUCUCUAUGG
RNA 2: GGGAAUGGAUCCACAUCUACGAAUUCGCACCAUAGAGAGGUUAUCCGCUCAUAGAGAUCGGAAGAGCACACGU
B22: target 1 MT 5'PFS GCU 3'PFS UUU (mixed)
RNA 1: CACCCGUGCAAAAAUGCAGGGGUCUAAAACUGAGCGGAUAACCUCUCUAUGG
RNA 2: GGGAAUGGAUCCACAUCUACGAAUUCGCUCCAUAGAGAGGUUAUCCGCUCAUUUAGAUCGGAAGAGCACACGU
B23: target 1 MT 5'PFS GAG 3'PFS AGU (mixed)
RNA 1: CACCCGUGCAAAAAUGCAGGGGUCUAAAACUGAGCGGAUAACCUCUCUAUGG
RNA 2: GGGAAUGGAUCCACAUCUACGAAUUCGAGCCAUAGAGAGGUUAUCCGCUCAAGUAGAUCGGAAGAGCACACGU

One may read the Kd as the constant that tells how readily two partners part at equilibrium.

The target in this data set is T1, EsCas13d, nuclease-dead. The data set is described as follows: crRNA (strand 1, pre-loaded); Mg2+; 40 mM Tris-HCl pH 7.5, 150 mM NaCl, 6 mM MgCl2, 1 mM DTT, 0.1% Tween-20, 0.2 mg/ml BSA; 25 C; 10 min per concentration, then washed. The conditions noted are these: tags: His6-TwinStrep-SUMO cleaved; N-terminal SNAP kept (SNAP-Surface 488); label: 3' end held by stalled T7 RNA polymerase.
B1 had a Kd of 22 ± 5 nM. In turn, B2 showed an equilibrium dissociation constant (Kd) of 37 ± 13 nM. Consider B3, for which the Kd was 15.8 ± 2.45 nM.

In the case of B4, the Kd is roughly 40.5 nM. Consider B5, for which the dissociation constant Kd is 65 ± 11 nM. Under B6 stands 13.7 ± 0.9 nM. Consider B7, for which the Kd worked out at 14 ± 2.55 nM.

B8 gave a Kd of 7.25 ± 0.95 nM. The molecule B9 showed a Kd of 19 ± 6.5 nM. B10 came in with an equilibrium dissociation constant (Kd) of 9.75 ± 0.7 nM. Then B11, with 19.1 ± 0.95 nM; and B12, with 10.8 ± 1.45 nM. B13: the equilibrium dissociation constant (Kd) stood at 36.5 ± 9 nM. In turn, B14 yielded a dissociation constant (Kd) of 30.6 ± 3.7 nM. B15 came in with a Kd of 61 ± 23.5 nM.

In turn, B16 registered a Kd of 13.8 ± 1.35 nM. In turn, B17 had a dissociation constant (Kd) of 20.7 ± 2 nM. For the molecule B18, the dissociation constant Kd stood at 11.4 ± 4 nM. Take B19: the Kd is 13.2 ± 1.25 nM.

Turning to B20, the equilibrium dissociation constant (Kd) was found to be 4.35 ± 0.17 nM.

Take B21: binding was characterised by a dissociation constant (Kd) of 19.4 ± 4.95 nM. In the case of B22, binding was put at a Kd of 24.1 ± 3.8 nM. Under B23 stands 47.5 ± 16.5 nM.
